# Source: patent publication US20140087995A1 (published 2014)
# Numbered stars: 1 amine (or outer) side, 2 acyl side, 3 side chain; on linkers, the order of the positions; unused ones are H or OH. Bridge positions count the residues as written; N and C are the ends. Side chains are listed from the residue outwards. Ends that are not written are not given here. * marks the point of attachment. C20 diacid = O=C(O)CCCCCCCCCCCCCCCCCCC(=O)*; γGlu = O=C(O)[C@H](CCC(=O)[*:2])N[*:1]
# T1: human amylin receptor (human, UniProt P30988 25-474; O60896 24-148, limits assumed)
# T1 construct: whole, on cells; Used as cell membranes prepared from the Amylin 3(a)/CRE-luc BHK cells (Assay V); also called hAmylin-R; hAmylinR
# T1 sequence (looked up) 1: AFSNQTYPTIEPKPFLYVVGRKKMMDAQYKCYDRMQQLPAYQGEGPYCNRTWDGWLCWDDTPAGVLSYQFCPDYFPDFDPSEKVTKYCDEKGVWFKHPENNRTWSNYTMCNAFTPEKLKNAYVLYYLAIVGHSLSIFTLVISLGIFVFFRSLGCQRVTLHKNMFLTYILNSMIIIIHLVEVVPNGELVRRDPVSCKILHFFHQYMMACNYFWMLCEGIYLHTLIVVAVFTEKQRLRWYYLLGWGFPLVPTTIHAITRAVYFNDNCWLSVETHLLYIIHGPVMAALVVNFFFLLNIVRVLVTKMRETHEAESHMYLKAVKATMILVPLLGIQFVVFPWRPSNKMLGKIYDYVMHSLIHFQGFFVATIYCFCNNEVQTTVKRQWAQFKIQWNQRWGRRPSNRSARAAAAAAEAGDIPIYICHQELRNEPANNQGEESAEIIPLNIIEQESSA
# T1 sequence (looked up) 2: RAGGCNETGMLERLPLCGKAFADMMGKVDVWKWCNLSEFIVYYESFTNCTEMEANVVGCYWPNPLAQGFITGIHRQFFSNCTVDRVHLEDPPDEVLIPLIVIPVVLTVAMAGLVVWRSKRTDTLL
# T2: human amylin receptor (Amylin 3(a) receptor: human calcitonin receptor co-expressed with RAMP-3) (human, UniProt P30988 25-474; O60896 24-148, limits assumed)
# T2 construct: whole, on cells; Used as cell membranes prepared from the Amylin 3(a)/CRE-luc BHK cells (Assay V); the complex is called the human amylin receptor; also called hAmylin-R; hAmylinR
# T2 sequence (looked up) 1: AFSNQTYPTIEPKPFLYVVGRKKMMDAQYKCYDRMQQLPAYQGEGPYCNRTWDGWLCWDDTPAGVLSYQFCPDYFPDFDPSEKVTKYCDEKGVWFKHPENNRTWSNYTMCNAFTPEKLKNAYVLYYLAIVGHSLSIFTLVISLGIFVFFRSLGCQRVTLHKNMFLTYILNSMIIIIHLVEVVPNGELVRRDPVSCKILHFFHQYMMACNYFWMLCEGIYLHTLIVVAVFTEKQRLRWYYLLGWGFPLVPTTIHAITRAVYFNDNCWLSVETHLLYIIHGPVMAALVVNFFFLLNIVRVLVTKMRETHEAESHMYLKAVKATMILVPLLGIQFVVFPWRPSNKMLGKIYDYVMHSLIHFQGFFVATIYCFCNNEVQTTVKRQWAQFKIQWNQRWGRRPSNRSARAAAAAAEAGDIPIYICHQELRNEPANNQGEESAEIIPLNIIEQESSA
# T2 sequence (looked up) 2: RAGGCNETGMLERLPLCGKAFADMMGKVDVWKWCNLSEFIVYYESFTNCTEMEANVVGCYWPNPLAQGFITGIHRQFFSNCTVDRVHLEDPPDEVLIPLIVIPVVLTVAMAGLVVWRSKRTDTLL
# Biological target: T1, human amylin receptor
# Experiment: SPA competition vs 125I-rat amylin, membranes of amylin 3(a) receptor BHK cells (Assay V)
# Method: The binding assay was performed using scintillation proximity assay (SPA) beads (RPNQ0001) from PerkinElmer and cell membranes from the Amylin 3(a)/CRE-luc cells (as described in Assay (II)) were used. Membranes were prepared in the following way; the cells were rinsed with PBS and incubated with Versene for approximately 5 min before harvesting. The cells were flushed with PBS and the cell-suspension was centrifuged for 5 min at 1000 rpm. Cells were homogenized (ultrathurrax) in a buffer containing 20 mM Na-HEPES and 10 mM EDTA (pH 7.4) and centrifuged at 20.000 rpm for 15 min. The resulting pellet was resuspended, homogenized and centrifuged (20.000 rpm, 15 min) in a buffer containing 20 mM Na-HEPES and 0.1 mM EDTA (pH 7.4, buffer 2). The resulting pellet was resuspended in buffer 2 and protein concentration was measured (BCA protein Assay, Pierce). The homogenate was kept cold during the whole procedure. The membranes were kept at −80° C. until use. The assay was performed in a 384 well Optiplate (PerkinElmer) in a total volume of 40 ul. Membranes were mixed with SPA beads. Final concentration of membranes 35 ng/μL final and SPA beads was 0.05 mg/well. Test-compounds were dissolved in DMSO and further diluted in assay buffer (50 mM Hepes, pH 7.4, 1 mM CaCl2, 5 mM MgCl₂, 0.1% OA and 0.02% Tween20). […] The final mixture was incubated with shaking at 400 rpm for 120 min at 25° C. prior to centrifugation (1500 rpm, 10 min). Samples were analyzed on TopCounter™ (Packard). The IC₅₀ was calculated using (one site binding competition analysis) GraphPad Prism5 as a measure of receptor affinity.
row,IC50,Binder
1,0.894 nM,"{C20 diacid-γGlu}-KCNTATCATQRLAEFLRHSSPNFGAIPSSTNVGSRTY-NH2 (disulfide 2-7; SMILES CC[C@H](C)[C@H](NC(=O)[C@H](C)NC(=O)CNC(=O)[C@H](Cc1ccccc1)NC(=O)[C@H](CC(N)=O)NC(=O)[C@@H]1CCCN1C(=O)[C@H](CO)NC(=O)[C@H](CO)NC(=O)[C@H](Cc1c[nH]cn1)NC(=O)[C@H](CCCNC(=N)N)NC(=O)[C@H](CC(C)C)NC(=O)[C@H](Cc1ccccc1)NC(=O)[C@H](CCC(=O)O)NC(=O)[C@H](C)NC(=O)[C@H](CC(C)C)NC(=O)[C@H](CCCNC(=N)N)NC(=O)[C@H](CCC(N)=O)NC(=O)[C@@H](NC(=O)[C@H](C)NC(=O)[C@@H]1CSSC[C@H](NC(=O)[C@H](CCCCN)NC(=O)CC[C@H](NC(=O)CCCCCCCCCCCCCCCCCCC(=O)O)C(=O)O)C(=O)N[C@@H](CC(N)=O)C(=O)N[C@@H]([C@@H](C)O)C(=O)N[C@@H](C)C(=O)N[C@@H]([C@@H](C)O)C(=O)N1)[C@@H](C)O)C(=O)N1CCC[C@H]1C(=O)N[C@@H](CO)C(=O)N[C@@H](CO)C(=O)N[C@H](C(=O)N[C@@H](CC(N)=O)C(=O)N[C@H](C(=O)NCC(=O)N[C@@H](CO)C(=O)N[C@@H](CCCNC(=N)N)C(=O)N[C@H](C(=O)N[C@@H](Cc1ccc(O)cc1)C(N)=O)[C@@H](C)O)C(C)C)[C@@H](C)O, also called compound 16)"
2,0.871 nM,"KCNTATCATQRLANFLRHSSPNFGAIPSSTNVGSETY (C20 diacid-gGlu on alpha amino group of the N-terminal residue; Cys2-Cys7 disulfide and C-terminal amide as in h-amylin, also called compound 23) [N^α1-[(4S)-4-carboxy-4-(19-carboxynonadecanoylamino)butanoyl]-[Arg17,Pro21,Pro27,Glu35]-h-amylin]"
3,0.665 nM,"KCNTATCATQRLANFLRHSSPNFGAIPSSTNVGRNTY (C20 diacid-gGlu on alpha amino group of the N-terminal residue; Cys2-Cys7 disulfide and C-terminal amide as in h-amylin, also called compound 39) [N^α1-[(4S)-4-carboxy-4-(19-carboxynonadecanoylamino)butanoyl]-[Arg17,Pro21,Pro27,Arg34]-h-amylin]"

# Biological target: T2, human amylin receptor (Amylin 3(a) …)
# Experiment: SPA competition binding, displacement of 125I-rat amylin from membranes of BHK cells with human calcitonin receptor + RAMP-3 (Assay V)
# Summary of the method: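 SPA beads + BHK amylin 3(a)/CRE-luc membranes, 35 ng/μL final; buffer 50 mM Hepes pH 7.4, 1 mM CaCl2, 5 mM MgCl₂, 0.1% OA, 0.02% Tween20. 120 min, 25° C, shaken; scintillation count. IC₅₀ by one-site binding competition fit, taken as receptor affinity.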
row,IC50,Binder
1,0.14 nM,"K([γGlu-C20 diacid])CNTATCATQRLAEFLRHSSPNFGAIPSSTNVGPETY-NH2 (disulfide 2-7; N-terminus assumed; SMILES CC[C@H](C)[C@H](NC(=O)[C@H](C)NC(=O)CNC(=O)[C@H](Cc1ccccc1)NC(=O)[C@H](CC(N)=O)NC(=O)[C@@H]1CCCN1C(=O)[C@H](CO)NC(=O)[C@H](CO)NC(=O)[C@H](Cc1c[nH]cn1)NC(=O)[C@H](CCCNC(=N)N)NC(=O)[C@H](CC(C)C)NC(=O)[C@H](Cc1ccccc1)NC(=O)[C@H](CCC(=O)O)NC(=O)[C@H](C)NC(=O)[C@H](CC(C)C)NC(=O)[C@H](CCCNC(=N)N)NC(=O)[C@H](CCC(N)=O)NC(=O)[C@@H](NC(=O)[C@H](C)NC(=O)[C@@H]1CSSC[C@H](NC(=O)[C@@H](N)CCCCNC(=O)CC[C@H](NC(=O)CCCCCCCCCCCCCCCCCCC(=O)O)C(=O)O)C(=O)N[C@@H](CC(N)=O)C(=O)N[C@@H]([C@@H](C)O)C(=O)N[C@@H](C)C(=O)N[C@@H]([C@@H](C)O)C(=O)N1)[C@@H](C)O)C(=O)N1CCC[C@H]1C(=O)N[C@@H](CO)C(=O)N[C@@H](CO)C(=O)N[C@H](C(=O)N[C@@H](CC(N)=O)C(=O)N[C@H](C(=O)NCC(=O)N1CCC[C@H]1C(=O)N[C@@H](CCC(=O)O)C(=O)N[C@H](C(=O)N[C@@H](Cc1ccc(O)cc1)C(N)=O)[C@@H](C)O)C(C)C)[C@@H](C)O, modifications are with respect to human amylin)"
2,0.076 nM,"K([γGlu-γGlu-C20 diacid])CNTATCATQRLASFLRHSSPNFGAIPSSTNVGPETY-NH2 (disulfide 2-7; N-terminus assumed; SMILES CC[C@H](C)[C@H](NC(=O)[C@H](C)NC(=O)CNC(=O)[C@H](Cc1ccccc1)NC(=O)[C@H](CC(N)=O)NC(=O)[C@@H]1CCCN1C(=O)[C@H](CO)NC(=O)[C@H](CO)NC(=O)[C@H](Cc1c[nH]cn1)NC(=O)[C@H](CCCNC(=N)N)NC(=O)[C@H](CC(C)C)NC(=O)[C@H](Cc1ccccc1)NC(=O)[C@H](CO)NC(=O)[C@H](C)NC(=O)[C@H](CC(C)C)NC(=O)[C@H](CCCNC(=N)N)NC(=O)[C@H](CCC(N)=O)NC(=O)[C@@H](NC(=O)[C@H](C)NC(=O)[C@@H]1CSSC[C@H](NC(=O)[C@@H](N)CCCCNC(=O)CC[C@H](NC(=O)CC[C@H](NC(=O)CCCCCCCCCCCCCCCCCCC(=O)O)C(=O)O)C(=O)O)C(=O)N[C@@H](CC(N)=O)C(=O)N[C@@H]([C@@H](C)O)C(=O)N[C@@H](C)C(=O)N[C@@H]([C@@H](C)O)C(=O)N1)[C@@H](C)O)C(=O)N1CCC[C@H]1C(=O)N[C@@H](CO)C(=O)N[C@@H](CO)C(=O)N[C@H](C(=O)N[C@@H](CC(N)=O)C(=O)N[C@H](C(=O)NCC(=O)N1CCC[C@H]1C(=O)N[C@@H](CCC(=O)O)C(=O)N[C@H](C(=O)N[C@@H](Cc1ccc(O)cc1)C(N)=O)[C@@H](C)O)C(C)C)[C@@H](C)O, modifications are with respect to human amylin; also called compound 120)"
